# Source: patent publication US20250215103A1 (Hoffmann-La Roche, published 2025)
# B1: bispecific CrossMab 8012 (PD1-0103-0312/51A165) (bispecific antibody, human IgG1, kappa, L234A L235A)
# heavy 1: EVQLQQSGPELVKPGASVKMSCKASGYTFTSYVMHWVKQKPGQGLEWIGYVNPYNDDTKYNEKFRGKATLTSDKSSSTAYMELSSLTSEDSAVYYCARSYYYYSMDNWGQGTSVTVSSASTKGPSVFPLAPSSKSTSGGTAALGCLVEDYFPEPVTVSWNSGALTSGVHTFPAVLQSSGLYSLSSVVTVPSSSLGTQTYICNVNHKPSNTKVDEKVEPKSCDKTHTCPPCPAPEAAGGPSVFLFPPKPKDTLMISRTPEVTCVVVDVSHEDPEVKFNWYVDGVEVHNAKTKPREEQYNSTYRVVSVLTVLHQDWLNGKEYKCKVSNKALGAPIEKTISKAKGQPREPQVCTLPPSRDELTKNQVSLSCAVKGFYPSDIAVEWESNGQPENNYKTTPPVLDSDGSFFLVSKLTVDKSRWQQGNVFSCSVMHEALHNHYTQKSLSLSP
# light 1: QIVLTQSPAIMSASPGEKVTVTCSASSSIRYMHWYQQKPGTSPKRWIYDTSELASGVPARFSGSGSGTSYSLTINSMEAEDAATYYCHQRSSYPFTFGGGTKLEIKRTVAAPSVFIFPPSDRKLKSGTASVVCLLNNFYPREAKVQWKVDNALQSGNSQESVTEQDSKDSTYSLSSTLTLSKADYEKHKVYACEVTHQGLSSPVTKSFNRGEC
# heavy 2: not shown
# light 2: EVQLLESGGGLVQPGGSLRLSCAASGFSFSSYTMSWVRQAPGKGLEWVATISGGGRDIYYPDSVKGRFTISRDNSKNTLYLQMNSLRAEDTAVYYCVLLTGRVYFALDSWGQGTLVTVSSASVAAPSVFIFPPSDEQLKSGTASVVCLLNNFYPREAKVQWKVDNALQSGNSQESVTEQDSKDSTYSLSSTLTLSKADYEKHKVYACEVTHQGLSSPVTKSFNRGEC
# B2: bispecific CrossMab 8018 (Pembrolizumab/51A165) (bispecific antibody, human IgG1, kappa, L234A L235A)
# heavy 1: B1 heavy 1
# light 1: B1 light 1
# heavy 2: not shown
# light 2: QVQLVQSGVEVKKPGASVKVSCKASGYTFTNYYMYWVRQAPGQGLEWMGGINPSNGGTNFNEKFKNRVTLTTDSSTTTAYMELKSLQFDDTAVYYCARRDYRFDMGFDYWGQGTTVTVSSASVAAPSVFIFPPSDEQLKSGTASVVCLLNNFYPREAKVQWKVDNALQSGNSQESVTEQDSKDSTYSLSSTLTLSKADYEKHKVYACEVTHQGLSSPVTKSFNRGEC
# B3: bispecific CrossMab 8013 (PD1-0103-0312/1026) (bispecific antibody, human IgG1, kappa, L234A L235A)
# heavy 1: QSMQESGPGLVKPSQTLSLTCTVSGFSLSSYAMSWIRQHPGKGLEWIGYIWSGGSTDYASWAKSRVTISKTSTTVSLKLSSVTAADTAVYYCARRYGTSYPDYGDASGFDPWGQGTLVTVSSASTKGPSVFPLAPSSKSTSGGTAALGCLVEDYFPEPVTVSWNSGALTSGVHTFPAVLQSSGLYSLSSVVTVPSSSLGTQTYICNVNHKPSNTKVDEKVEPKSCDKTHTCPPCPAPEAAGGPSVFLFPPKPKDTLMISRTPEVTCVVVDVSHEDPEVKFNWYVDGVEVHNAKTKPREEQYNSTYRVVSVLTVLHQDWLNGKEYKCKVSNKALGAPIEKTISKAKGQPREPQVCTLPPSRDELTKNQVSLSCAVKGFYPSDIAVEWESNGQPENNYKTTPPVLDSDGSFFLVSKLTVDKSRWQQGNVFSCSVMHEALHNHYTQKSLSLSP
# light 1: AIQLTQSPSSLSASVGDRVTITCRASQSISSYLAWYQQKPGKAPKLLIYRASTLASGVPSRFSGSGSGTDFTLTISSLQPEDFATYYCQQNYASSNVDNTFGGGTKVEIKRTVAAPSVFIFPPSDRKLKSGTASVVCLLNNFYPREAKVQWKVDNALQSGNSQESVTEQDSKDSTYSLSSTLTLSKADYEKHKVYACEVTHQGLSSPVTKSFNRGEC
# heavy 2: not shown
# light 2: B1 light 2
# B4: bispecific CrossMab 8017 (Pembrolizumab/1026) (bispecific antibody, human IgG1, kappa, L234A L235A)
# heavy 1: B3 heavy 1
# light 1: B3 light 1
# heavy 2: not shown
# light 2: B2 light 2
# B5: PD1-0103-0312 (antibody, V domains shown)
# VH: EVQLLESGGGLVQPGGSLRLSCAASGFSFSSYTMSWVRQAPGKGLEWVATISGGGRDIYYPDSVKGRFTISRDNSKNTLYLQMNSLRAEDTAVYYCVLLTGRVYFALDSWGQGTLVTVSS
# VL: DIVMTQSPDSLAVSLGERATINCKASESVDTSDNSFIHWYQQKPGQSPKLLIYRSSTLESGVPDRFSGSGSGTDFTLTISSLQAEDVAVYYCQQNYDVPWTFGQGTKVEIK
# B6: control 2+1 CrossMab 8158 (PD1-0103-0312/Nada BBB-format) (bispecific antibody, human IgG1, kappa, L234A L235A)
# light 1: B1 light 2
# light 2: DIQMTQSPSSLSASVGDRVTITCRASQDVGSGVAWYQQKPGKAPKLLIGSASGLYSGVPSRFSGSRSGTDFTLTISSLQPEDFATYYCQQSASGGSTFGQGTKVEIKRTVAAPSVFIFPPSDRKLKSGTASVVCLLNNFYPREAKVQWKVDNALQSGNSQESVTEQDSKDSTYSLSSTLTLSKADYEKHKVYACEVTHQGLSSPVTKSFNRGEC
# heavy 1: DIVMTQSPDSLAVSLGERATINCKASESVDTSDNSFIHWYQQKPGQSPKLLIYRSSTLESGVPDRFSGSGSGTDFTLTISSLQAEDVAVYYCQQNYDVPWTFGQGTKVEIKSSASTKGPSVFPLAPSSKSTSGGTAALGCLVKDYFPEPVTVSWNSGALTSGVHTFPAVLQSSGLYSLSSVVTVPSSSLGTQTYICNVNHKPSNTKVDKKVEPKSCDKTHTCPPCPAPEAAGGPSVFLFPPKPKDTLMISRTPEVTCVVVDVSHEDPEVKFNWYVDGVEVHNAKTKPREEQYNSTYRVVSVLTVLHQDWLNGKEYKCKVSNKALGAPIEKTISKAKGQPREPQVCTLPPSRDELTKNQVSLSCAVKGFYPSDIAVEWESNGQPENNYKTTPPVLDSDGSFFLVSKLTVDKSRWQQGNVFSCSVMHEALHNHYTQKSLSLSPGKGGGGSGGGGSEVQLVESGGGLVQPGGSLRLSCAASGFSIAGTAIHWVRQAPGKGLEWVASISPGGGSTAYADSVKGRFTISADTSKNTAYLQMNSLRAEDTAVYYCSRSGGSGASAMDYWGQGTLVTVSSASTKGPSVFPLAPSSKSTSGGTAALGCLVEDYFPEPVTVSWNSGALTSGVHTFPAVLQSSGLYSLSSVVTVPSSSLGTQTYICNVNHKPSNTKVDEKVEPKSCD
# heavy 2: not shown
# B7: control CrossMab 8014 (PD1-0103-0312/Nada) (bispecific antibody, human IgG1, kappa, L234A L235A)
# heavy 1: EVQLVESGGGLVQPGGSLRLSCAASGFSIAGTAIHWVRQAPGKGLEWVASISPGGGSTAYADSVKGRFTISADTSKNTAYLQMNSLRAEDTAVYYCSRSGGSGASAMDYWGQGTLVTVSSASTKGPSVFPLAPSSKSTSGGTAALGCLVEDYFPEPVTVSWNSGALTSGVHTFPAVLQSSGLYSLSSVVTVPSSSLGTQTYICNVNHKPSNTKVDEKVEPKSCDKTHTCPPCPAPEAAGGPSVFLFPPKPKDTLMISRTPEVTCVVVDVSHEDPEVKFNWYVDGVEVHNAKTKPREEQYNSTYRVVSVLTVLHQDWLNGKEYKCKVSNKALGAPIEKTISKAKGQPREPQVCTLPPSRDELTKNQVSLSCAVKGFYPSDIAVEWESNGQPENNYKTTPPVLDSDGSFFLVSKLTVDKSRWQQGNVFSCSVMHEALHNHYTQKSLSLSP
# light 1: B6 light 2
# heavy 2: not shown
# light 2: B1 light 2
# B8: control 2+1 CrossMab 8159 (PD1-0103-0312/Nada TCB-format) (bispecific antibody, human IgG1, kappa, L234A L235A)
# light 1: B1 light 2
# light 2: B6 light 2
# heavy 1: DIVMTQSPDSLAVSLGERATINCKASESVDTSDNSFIHWYQQKPGQSPKLLIYRSSTLESGVPDRFSGSGSGTDFTLTISSLQAEDVAVYYCQQNYDVPWTFGQGTKVEIKSSASTKGPSVFPLAPSSKSTSGGTAALGCLVKDYFPEPVTVSWNSGALTSGVHTFPAVLQSSGLYSLSSVVTVPSSSLGTQTYICNVNHKPSNTKVDKKVEPKSCDGGGGSGGGGSEVQLVESGGGLVQPGGSLRLSCAASGFSIAGTAIHWVRQAPGKGLEWVASISPGGGSTAYADSVKGRFTISADTSKNTAYLQMNSLRAEDTAVYYCSRSGGSGASAMDYWGQGTLVTVSSASTKGPSVFPLAPSSKSTSGGTAALGCLVEDYFPEPVTVSWNSGALTSGVHTFPAVLQSSGLYSLSSVVTVPSSSLGTQTYICNVNHKPSNTKVDEKVEPKSCDKTHTCPPCPAPEAAGGPSVFLFPPKPKDTLMISRTPEVTCVVVDVSHEDPEVKFNWYVDGVEVHNAKTKPREEQYNSTYRVVSVLTVLHQDWLNGKEYKCKVSNKALGAPIEKTISKAKGQPREPQVCTLPPSRDELTKNQVSLSCAVKGFYPSDIAVEWESNGQPENNYKTTPPVLDSDGSFFLVSKLTVDKSRWQQGNVFSCSVMHEALHNHYTQKSLSLSP
# heavy 2: not shown
# Target: T1, human PD1 on cells (Jurkat cells expressing human PD1; activated human T cells) (human, UniProt Q15116 25-288)
# Test: cell-based or functional assay
# T1 sequence (Q15116 25-288 limits assumed): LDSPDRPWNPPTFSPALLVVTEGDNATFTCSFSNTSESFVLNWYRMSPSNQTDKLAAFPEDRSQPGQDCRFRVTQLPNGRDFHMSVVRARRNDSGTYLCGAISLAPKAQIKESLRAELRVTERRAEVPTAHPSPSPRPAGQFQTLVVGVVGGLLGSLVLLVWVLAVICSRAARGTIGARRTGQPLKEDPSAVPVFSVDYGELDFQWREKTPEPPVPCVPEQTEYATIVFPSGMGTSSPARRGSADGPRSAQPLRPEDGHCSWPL
row,"Fold activity vs. control (EC50 of Granzyme B, mMLR), control PD1-0103-312 [fold vs PD1-0103-312]",Binder
1,3.82,B1
2,5.97,B2
3,0.47,B3
4,1.92,B4

# Target: T1, human PD1 on cells (Jurkat cells …)
# Test: cell-based or functional assay
# Remark: another data set of the same source
"Fold activity vs. control (EC50 of Granzyme B, mMLR), control 8014 [fold vs 8014]","Fold activity vs. control (EC50 of Granzyme B, mMLR), control 8019 [fold vs 8019]",Binder
1560,,B1
,4720,B2
191,,B3
,1510,B4

# Target: T1, human PD1 on cells (Jurkat cells …)
# Test: cell-based or functional assay
# Remark: another data set of the same source
row,"EC50 (pM) of Granzyme B production, mMLR [pM]",Binder
1,110,B5
2,34,B1
3,111,B6
4,13100,B7
5,139,B2
6,117,B8
7,388,B3
8,121,B4
